One molecule from publication PMC10743661, “The Link of mRNA and rRNA Transcription by PUF60/FIR through TFIIH/P62 as a Novel Therapeutic Target for Cancer” (International Journal of Molecular Sciences, 2023) can be followed below.

The target in assay [1] is T1, FUBP1-interacting repressor (FIR) (human, UniProt Q9UHX1-2 1-542).
T1 chain: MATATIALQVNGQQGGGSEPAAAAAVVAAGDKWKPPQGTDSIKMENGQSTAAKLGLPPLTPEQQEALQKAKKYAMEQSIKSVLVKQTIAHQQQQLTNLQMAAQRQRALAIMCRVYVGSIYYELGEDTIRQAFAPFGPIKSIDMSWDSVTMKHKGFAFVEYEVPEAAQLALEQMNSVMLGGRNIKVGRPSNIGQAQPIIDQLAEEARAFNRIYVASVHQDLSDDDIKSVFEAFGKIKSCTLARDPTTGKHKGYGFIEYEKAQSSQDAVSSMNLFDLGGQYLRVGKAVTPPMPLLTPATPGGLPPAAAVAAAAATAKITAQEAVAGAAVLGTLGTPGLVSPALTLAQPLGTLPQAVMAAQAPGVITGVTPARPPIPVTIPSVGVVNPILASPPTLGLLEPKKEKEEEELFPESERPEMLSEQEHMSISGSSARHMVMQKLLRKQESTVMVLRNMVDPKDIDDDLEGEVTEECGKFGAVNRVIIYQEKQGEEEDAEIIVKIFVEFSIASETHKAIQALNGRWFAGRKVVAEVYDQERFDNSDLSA
The assay is described as follows: ITC; first step of two-step fit, 30°C, pH 7.2. (In general: In ITC the heat of successive injections is recorded.)

For assay [2], the target named is T1, FUBP1-interacting repressor (FIR). Put plainly: ITC; second step of two-step fit, 30°C, pH 7.2.
Assay [3] addresses T2, FUBP1-interacting repressor (FIR) (human, UniProt Q9UHX1-2 1-542).
T2 construct: also called FIR wild; wild FIR
T2 sequence (looked up): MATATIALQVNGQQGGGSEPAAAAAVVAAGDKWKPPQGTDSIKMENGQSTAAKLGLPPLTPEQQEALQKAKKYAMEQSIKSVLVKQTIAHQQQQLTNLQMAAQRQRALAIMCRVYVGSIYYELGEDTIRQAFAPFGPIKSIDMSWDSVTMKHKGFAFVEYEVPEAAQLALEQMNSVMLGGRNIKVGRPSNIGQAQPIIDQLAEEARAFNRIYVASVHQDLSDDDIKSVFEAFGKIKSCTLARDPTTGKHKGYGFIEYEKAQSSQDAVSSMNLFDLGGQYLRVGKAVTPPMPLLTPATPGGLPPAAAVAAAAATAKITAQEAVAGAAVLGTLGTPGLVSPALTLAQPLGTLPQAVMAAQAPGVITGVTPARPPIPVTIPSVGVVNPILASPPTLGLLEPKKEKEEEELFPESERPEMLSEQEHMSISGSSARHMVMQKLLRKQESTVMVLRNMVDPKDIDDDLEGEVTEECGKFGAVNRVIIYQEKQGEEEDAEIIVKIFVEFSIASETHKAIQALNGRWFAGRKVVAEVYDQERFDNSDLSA
The assay is described as follows: ITC; MicroCal VP-ITC, 30 °C, 50 mM phosphate buffer pH 7.2; cell: 4 μM wild FIR or 14.5 μM FIR∆exon2; syringe: 44 or 145 μM TFIIH p62 PH domain; 25 injections of 10 μL. Conditions: both partners purified.

B1: TFIIH p62 PH domain (domain or fragment, UniProt P32780 1-108, looked up)
chain: MATSSEEVLLIVKKVRQKKQDGALYLMAERIAWAPEGKDRFTISHMYADIKCQKISPEGKAKIQLQLVLHAGDTTNFHFSNESTAVKERDAVKDLLQQLLPKFKRKAN
notes: pleckstrin homology (PH) domain of the P62 subunit of transcription factor IIH; also called P62 of TFIIH; P62 subunit of TFIIH
As for B1, the Ka in assay [1] came out at 1.9e+07 M⁻¹; in assay [2] it was 2.3e+06 M⁻¹; in assay [3] it was 2.34e+07 M⁻¹.
